# Laboratory results: patent publication US20150082475
# B1: recombinant OsPSTOL1 (OsPSTOL1rec) (protein)
# chain: MLLCQRASKNAPRIESFLQKQETSNPKRYTLSEVKRMTKSFAHKLGRGGFGTVYKGSLPDGREIAVKMLKDTKGDGEEFINEVAGISKTSHINVVNLLGFSLQGSKRALIYEYMPNGSLDRYSFGDSSVQGDNTLSWDRLFNIIVGIARGLEYLHCHCNIRIVHFDIKPQNILLAQDFCPKISDFGLSKLCHLKESRISINGLRGTPGYIAPEVFSRQYGSASSKSDVYSYGMVVLEMAGAKKNINVSTGSSSKYFPQWLYDNLDQFCCPTGEISSQTTDLVRKMVVVGLWCIQLVPTDRPSMREVLEMLESNGRDLPLPPKGLHHHHHH
# Molecular target: light-harvesting complex II (LHCII) in thylakoids of the Arabidopsis thaliana stn7 stn8 double mutant
protein,measurement,value
B1,"phosphorylation of LHCII, in vitro phosphorylation assay with phosphothreonine-specific immunoblot",recombinant OsPSTOL1 protein restores phosphorylation of the light-harvesting complex II (LHCII) in the Arabidopsis stn7 stn8 double mutant (lane 4)
